Test results from publication PMC6555819, “Comprehensive study of nuclear receptor DNA binding provides a revised framework for understanding receptor specificity”.

Legend:
PPARg:RXRa = PPARg:RXRa (Homo sapiens, UniProt P37231;P19793 full;full); assay: no ligand; PBM; 180 nM : 90 nM RXRa; PBS pH 7.4, 2% milk, 0.02% Triton X-100, 1 mM DTT, BSA, 0.4 mg/ml salmon testes DNA; conditions: tags: His kept;His cleaved; copies: 1;1; label: surface-attached array probe
RARa:RXRa = RARa:RXRa (Homo sapiens, UniProt P10276;P19793 full;full); assay: no ligand; PBM; 270 nM : 90 nM RXRa; PBS pH 7.4, 2% milk, 0.02% Triton X-100, 1 mM DTT, BSA, 0.4 mg/ml salmon testes DNA; conditions: tags: His kept;His cleaved; copies: 1;1; label: surface-attached array probe
Chain of RARa:RXRa (P10276 whole entry, chain 1 of 2): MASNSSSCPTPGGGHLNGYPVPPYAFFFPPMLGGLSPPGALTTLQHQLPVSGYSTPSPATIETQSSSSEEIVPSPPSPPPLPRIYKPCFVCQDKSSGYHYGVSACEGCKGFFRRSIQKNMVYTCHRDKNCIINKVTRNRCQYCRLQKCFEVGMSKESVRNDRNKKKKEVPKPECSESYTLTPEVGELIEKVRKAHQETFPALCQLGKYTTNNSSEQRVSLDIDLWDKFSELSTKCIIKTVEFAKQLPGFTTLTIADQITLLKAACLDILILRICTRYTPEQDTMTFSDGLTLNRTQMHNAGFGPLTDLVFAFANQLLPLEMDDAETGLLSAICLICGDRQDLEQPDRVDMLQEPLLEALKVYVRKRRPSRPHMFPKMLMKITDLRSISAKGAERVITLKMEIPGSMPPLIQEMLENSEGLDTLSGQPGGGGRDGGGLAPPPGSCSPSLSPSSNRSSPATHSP
Chain of RARa:RXRa (P19793 whole entry, chain 2 of 2): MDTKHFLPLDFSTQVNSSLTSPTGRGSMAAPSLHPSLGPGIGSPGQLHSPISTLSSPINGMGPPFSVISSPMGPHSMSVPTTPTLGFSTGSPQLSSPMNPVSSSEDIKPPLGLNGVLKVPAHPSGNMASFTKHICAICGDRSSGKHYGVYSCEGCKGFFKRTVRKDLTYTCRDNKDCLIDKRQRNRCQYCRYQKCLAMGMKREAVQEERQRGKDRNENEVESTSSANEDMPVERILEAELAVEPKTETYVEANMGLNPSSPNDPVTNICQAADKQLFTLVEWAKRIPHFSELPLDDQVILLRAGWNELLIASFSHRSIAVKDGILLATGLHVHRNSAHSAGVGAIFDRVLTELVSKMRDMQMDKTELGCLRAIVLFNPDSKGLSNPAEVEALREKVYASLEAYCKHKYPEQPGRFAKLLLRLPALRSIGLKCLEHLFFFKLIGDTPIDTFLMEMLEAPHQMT
Procedure, shortened: (§1)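 Binding z-scores were set against random background probes. The data came from custom Agilent 4×180K protein-binding microarrays carrying double-stranded probes with 34-nt variable regions, incubated 1 h with ligand-free nuclear receptor dimers. Partner-specific antibodies detected binding, and scanned fluorescence was regression-normalized.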

LXRb:RXRa = LXRb:RXRa (Homo sapiens, UniProt P55055;P19793 full;full); assay: as above; conditions: tags: His kept;His cleaved; copies: 1;1; label: surface-attached array probe
Chain of LXRb:RXRa (P55055 whole entry, chain 1 of 2): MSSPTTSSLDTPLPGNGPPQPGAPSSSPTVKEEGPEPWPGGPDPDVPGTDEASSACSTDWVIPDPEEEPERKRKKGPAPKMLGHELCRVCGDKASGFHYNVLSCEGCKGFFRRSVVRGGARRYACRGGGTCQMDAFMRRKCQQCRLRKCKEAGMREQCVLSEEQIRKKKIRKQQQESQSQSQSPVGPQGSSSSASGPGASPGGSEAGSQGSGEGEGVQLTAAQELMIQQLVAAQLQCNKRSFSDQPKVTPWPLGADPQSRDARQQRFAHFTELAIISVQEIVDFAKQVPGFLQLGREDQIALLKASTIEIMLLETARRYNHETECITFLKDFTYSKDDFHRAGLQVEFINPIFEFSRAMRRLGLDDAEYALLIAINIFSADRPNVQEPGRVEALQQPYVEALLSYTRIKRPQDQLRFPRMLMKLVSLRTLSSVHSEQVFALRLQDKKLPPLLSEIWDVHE
Chain of LXRb:RXRa (P19793 whole entry, chain 2 of 2): as the sequence (P19793 whole entry, chain 2 of 2) above
Procedure, shortened: as §1

PPARa:RXRa = PPARa:RXRa (Homo sapiens, UniProt Q07869;P19793 full;full); assay: as above; conditions: tags: GST kept;His cleaved; copies: 1;1; label: surface-attached array probe
Chain of PPARa:RXRa (Q07869 whole entry, chain 1 of 2): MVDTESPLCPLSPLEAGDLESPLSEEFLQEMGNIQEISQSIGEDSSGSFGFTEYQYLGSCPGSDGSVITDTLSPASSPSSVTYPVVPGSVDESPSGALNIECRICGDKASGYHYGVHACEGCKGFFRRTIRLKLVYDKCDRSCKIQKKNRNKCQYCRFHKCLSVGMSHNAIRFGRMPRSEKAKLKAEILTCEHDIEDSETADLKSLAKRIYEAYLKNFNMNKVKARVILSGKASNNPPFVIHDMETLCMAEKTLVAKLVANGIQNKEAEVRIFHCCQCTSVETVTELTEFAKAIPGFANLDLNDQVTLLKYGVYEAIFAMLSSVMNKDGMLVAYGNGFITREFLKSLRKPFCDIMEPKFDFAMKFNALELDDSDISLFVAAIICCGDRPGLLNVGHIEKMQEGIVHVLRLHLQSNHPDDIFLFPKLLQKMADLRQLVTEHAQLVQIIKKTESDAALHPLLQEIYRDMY
Chain of PPARa:RXRa (P19793 whole entry, chain 2 of 2): as the sequence (P19793 whole entry, chain 2 of 2) above
Procedure, shortened: as §1

VDR:RXRa = VDR:RXRa (Homo sapiens, UniProt P11473;P19793 full;full); assay: as above; conditions: tags: His kept;His cleaved; copies: 1;1; label: surface-attached array probe
Procedure, shortened: as §1

PXR:RXRa = PXR:RXRa (Homo sapiens, UniProt O75469;P19793 full;full); assay: as above; conditions: tags: His kept;His cleaved; copies: 1;1; label: surface-attached array probe
Procedure, shortened: as §1

RXRa = RXRa (Homo sapiens, UniProt P19793); assay: no ligand; PBM; 180 nM; PBS pH 7.4, 2% milk, 0.02% Triton X-100, 1 mM DTT, BSA, 0.4 mg/ml salmon testes DNA; conditions: tags: His cleaved; chain copies: 2; label: surface-attached array probe
RARg:RXRa = RARg:RXRa (Homo sapiens, UniProt P13631;P19793 full;full); assay: no ligand; PBM; 270 nM : 90 nM RXRa; PBS pH 7.4, 2% milk, 0.02% Triton X-100, 1 mM DTT, BSA, 0.4 mg/ml salmon testes DNA; conditions: tags: His kept;His cleaved; copies: 1;1; label: surface-attached array probe
Procedure, shortened: as §1

RARb:RXRa = RARb:RXRa (Homo sapiens, UniProt P10826;P19793 full;full); assay: as above; conditions: tags: His kept;His cleaved; copies: 1;1; label: surface-attached array probe
Chain of RARb:RXRa (P10826 whole entry, chain 1 of 2): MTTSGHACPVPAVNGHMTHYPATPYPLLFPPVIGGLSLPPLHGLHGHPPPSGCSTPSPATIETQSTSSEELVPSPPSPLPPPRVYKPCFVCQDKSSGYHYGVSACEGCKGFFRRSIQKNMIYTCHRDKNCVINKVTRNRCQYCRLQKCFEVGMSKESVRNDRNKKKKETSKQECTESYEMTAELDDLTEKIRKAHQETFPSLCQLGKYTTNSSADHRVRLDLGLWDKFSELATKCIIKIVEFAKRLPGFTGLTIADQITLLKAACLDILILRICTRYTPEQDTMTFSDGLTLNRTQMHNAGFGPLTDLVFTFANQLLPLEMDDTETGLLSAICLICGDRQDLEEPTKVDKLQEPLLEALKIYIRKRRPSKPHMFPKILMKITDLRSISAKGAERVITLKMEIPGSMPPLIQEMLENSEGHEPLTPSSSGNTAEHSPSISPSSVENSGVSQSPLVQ
Chain of RARb:RXRa (P19793 whole entry, chain 2 of 2): as the sequence (P19793 whole entry, chain 2 of 2) above
Procedure, shortened: as §1

FXR:RXRa = FXR:RXRa (Homo sapiens, UniProt Q96RI1;P19793 full;full); assay: as above; conditions: tags: His kept;His cleaved; copies: 1;1; label: surface-attached array probe
Procedure, shortened: as §1

LXRa:RXRa = LXRa:RXRa (Homo sapiens, UniProt Q13133;P19793 full;full); assay: as above; conditions: tags: His kept;His cleaved; copies: 1;1; label: surface-attached array probe
Chain of LXRa:RXRa (Q13133 whole entry, chain 1 of 2): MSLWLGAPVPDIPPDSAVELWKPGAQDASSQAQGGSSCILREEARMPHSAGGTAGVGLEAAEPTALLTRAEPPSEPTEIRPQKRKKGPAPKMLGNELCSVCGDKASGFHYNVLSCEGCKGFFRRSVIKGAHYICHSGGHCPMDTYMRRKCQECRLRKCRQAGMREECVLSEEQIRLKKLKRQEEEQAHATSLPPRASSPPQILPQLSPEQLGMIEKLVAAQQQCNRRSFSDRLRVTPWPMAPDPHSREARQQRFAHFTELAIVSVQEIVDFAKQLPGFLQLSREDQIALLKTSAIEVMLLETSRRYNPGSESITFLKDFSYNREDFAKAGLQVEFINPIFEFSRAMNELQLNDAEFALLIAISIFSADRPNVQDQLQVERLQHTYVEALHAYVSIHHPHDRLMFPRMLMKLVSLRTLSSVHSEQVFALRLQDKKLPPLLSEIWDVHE
Chain of LXRa:RXRa (P19793 whole entry, chain 2 of 2): as the sequence (P19793 whole entry, chain 2 of 2) above
Procedure, shortened: as §1

| Binder | binding signal (PPARg:RXRa) | binding signal (RARa:RXRa) | binding signal (LXRb:RXRa) | binding signal (PPARa:RXRa) | binding signal (VDR:RXRa) | binding signal (PXR:RXRa) | binding signal (RXRa) | binding signal (RARg:RXRa) | binding signal (RARb:RXRa) | binding signal (FXR:RXRa) | binding signal (LXRa:RXRa) |
| --- | --- | --- | --- | --- | --- | --- | --- | --- | --- | --- | --- |
| NRC3_wobSeed89_DR3_T13C_o1 (dsDNA) DNA 1: GCCTATGTAGGTCAAGGGGGTCATTCAGTTTGAAAGGCGATTGACAGCGTAGAATGAAGG DNA 2: CCTTCATTCTACGCTGTCAATCGCCTTTCAAACTGAATGACCCCCTTGACCTACATAGGC | 11.1 PBM z-score against 500 random probes | 7.29 PBM z-score against 500 random probes | 6.92 PBM z-score against 500 random probes | 6.84 PBM z-score against 500 random probes | 8.32 PBM z-score against 500 random probes | 6.79 PBM z-score against 500 random probes |  |  |  |  |  |
| NRC3_wobSeed41_DR1_T13C_o1 (dsDNA) DNA 1: GCATATGTAGGTCAAGGGTCATTCAGGTTGGTTCGCGCGATTGACAGCGTAGAATGAAGG DNA 2: CCTTCATTCTACGCTGTCAATCGCGCGAACCAACCTGAATGACCCTTGACCTACATATGC | 13.1 PBM z-score against 500 random probes | 7.96 PBM z-score against 500 random probes | 6.03 PBM z-score against 500 random probes | 7.55 PBM z-score against 500 random probes | 6.57 PBM z-score against 500 random probes | 6.6 PBM z-score against 500 random probes | 9.04 PBM z-score against 500 random probes |  |  |  |  |
| NRC3_wobSeed41_DR1_G16A_o1 (dsDNA) DNA 1: GCATATGTAGGTTAAAGGTCATTCAGGTTGGTTCGCGCGATTGACAGCGTAGAATGAAGG DNA 2: CCTTCATTCTACGCTGTCAATCGCGCGAACCAACCTGAATGACCTTTAACCTACATATGC | 13.4 PBM z-score against 500 random probes | 8.42 PBM z-score against 500 random probes | 5.91 PBM z-score against 500 random probes | 7.09 PBM z-score against 500 random probes | 6.82 PBM z-score against 500 random probes | 6.71 PBM z-score against 500 random probes | 9.21 PBM z-score against 500 random probes |  |  |  |  |
| NRC3_wobSeed44_DR1_A18G_o1 (dsDNA) DNA 1: GCTGAATGAGGTTAAAGGTCAGGGAACGTGGCGTCGGCGATTGACAGCGTAGAATGAAGG DNA 2: CCTTCATTCTACGCTGTCAATCGCCGACGCCACGTTCCCTGACCTTTAACCTCATTCAGC | 11.9 PBM z-score against 500 random probes | 9.15 PBM z-score against 500 random probes |  | 6.96 PBM z-score against 500 random probes |  | 6.68 PBM z-score against 500 random probes | 9.53 PBM z-score against 500 random probes |  |  |  |  |
| NRC3_wobSeed73_DR3_C28T_o1 (dsDNA) DNA 1: GCCAAACTAGGTCACAGAGGTCAAAGTTCGTGCGTAGCGATTGACAGCGTAGAATGAAGG DNA 2: CCTTCATTCTACGCTGTCAATCGCTACGCACGAACTTTGACCTCTGTGACCTAGTTTGGC | 10.8 PBM z-score against 500 random probes | 8.8 PBM z-score against 500 random probes |  |  |  | 7.41 PBM z-score against 500 random probes | 8.65 PBM z-score against 500 random probes |  |  |  |  |
| NRC3_wobSeed39_DR1_A19T_o1 (dsDNA) DNA 1: GCCGAACTAGGTCAAAGGTCAGTGAAAGGCGACGTAGCGATTGACAGCGTAGAATGAAGG DNA 2: CCTTCATTCTACGCTGTCAATCGCTACGTCGCCTTTCACTGACCTTTGACCTAGTTCGGC | 14 PBM z-score against 500 random probes | 8.51 PBM z-score against 500 random probes |  | 7.58 PBM z-score against 500 random probes |  | 6.52 PBM z-score against 500 random probes | 9.27 PBM z-score against 500 random probes | 8.09 PBM z-score against 500 random probes | 5.46 PBM z-score against 500 random probes |  |  |
| NRC3_wobSeed36_DR1_T20C_o1 (dsDNA) DNA 1: GCCCGACTGGGGCAAAGGTCACCATACTCAGTACGAGCGATTGACAGCGTAGAATGAAGG DNA 2: CCTTCATTCTACGCTGTCAATCGCTCGTACTGAGTATGGTGACCTTTGCCCCAGTCGGGC | 12.5 PBM z-score against 500 random probes | 7.41 PBM z-score against 500 random probes |  | 6.53 PBM z-score against 500 random probes |  |  | 8.25 PBM z-score against 500 random probes |  |  |  |  |
| NRC3_random_hg19_6_o1 (dsDNA) DNA 1: GCACTCAGAGAGTTGAAGTGATTTGCCCAAGACCACGCGATTGACAGCGTAGAATGAAGG DNA 2: CCTTCATTCTACGCTGTCAATCGCGTGGTCTTGGGCAAATCACTTCAACTCTCTGAGTGC | 0.15 PBM z-score against 500 random probes | 0.23 PBM z-score against 500 random probes |  |  | -0.28 PBM z-score against 500 random probes |  |  |  |  |  |  |
| NRC3_wobSeed49_DR2_C27T_o1 (dsDNA) DNA 1: GCCAAACTAGGTCAAGAGGTCAAAGTTCGCTTCCCGGCGATTGACAGCGTAGAATGAAGG DNA 2: CCTTCATTCTACGCTGTCAATCGCCGGGAAGCGAACTTTGACCTCTTGACCTAGTTTGGC | 11 PBM z-score against 500 random probes | 8.47 PBM z-score against 500 random probes |  | 6.92 PBM z-score against 500 random probes | 6.55 PBM z-score against 500 random probes | 6.88 PBM z-score against 500 random probes |  |  |  | 7.82 PBM z-score against 500 random probes |  |
| NRC3_wobSeed45_DR1_A20T_o1 (dsDNA) DNA 1: GCTGTCAAAGTTCAAAGGTTACGTAAGTATCCACACGCGATTGACAGCGTAGAATGAAGG DNA 2: CCTTCATTCTACGCTGTCAATCGCGTGTGGATACTTACGTAACCTTTGAACTTTGACAGC | 9.98 PBM z-score against 500 random probes | 8.47 PBM z-score against 500 random probes | 5.93 PBM z-score against 500 random probes | 6.95 PBM z-score against 500 random probes |  | 6.87 PBM z-score against 500 random probes | 9.74 PBM z-score against 500 random probes | 7.83 PBM z-score against 500 random probes | 5.55 PBM z-score against 500 random probes |  | 7.17 PBM z-score against 500 random probes |
| NRC3_wobSeed121_DR5_G18A_o1 (dsDNA) DNA 1: GCCAAACTAGGTCACCGAAAGGTCAAAGTCCGCATGGCGATTGACAGCGTAGAATGAAGG DNA 2: CCTTCATTCTACGCTGTCAATCGCCATGCGGACTTTGACCTTTCGGTGACCTAGTTTGGC | 10.5 PBM z-score against 500 random probes | 8.55 PBM z-score against 500 random probes | 6.47 PBM z-score against 500 random probes | 6.77 PBM z-score against 500 random probes |  | 6.93 PBM z-score against 500 random probes |  |  | 5.67 PBM z-score against 500 random probes |  | 6.91 PBM z-score against 500 random probes |
| NRC3_wobSeed26_DR1_T9C_o1 (dsDNA) DNA 1: GCTCTAGTCGGTCAAAGGTCACACACTCGAAATGCGGCGATTGACAGCGTAGAATGAAGG DNA 2: CCTTCATTCTACGCTGTCAATCGCCGCATTTCGAGTGTGTGACCTTTGACCGACTAGAGC | 12.4 PBM z-score against 500 random probes | 8.22 PBM z-score against 500 random probes |  | 6.91 PBM z-score against 500 random probes |  |  | 8.95 PBM z-score against 500 random probes | 8.36 PBM z-score against 500 random probes |  |  | 6.67 PBM z-score against 500 random probes |
| NRC3_random_hg19_307_o1 (dsDNA) DNA 1: GCATGTTAGAGCTCATGGAGAAGTGTCCTATGTGATGCGATTGACAGCGTAGAATGAAGG DNA 2: CCTTCATTCTACGCTGTCAATCGCATCACATAGGACACTTCTCCATGAGCTCTAACATGC | 0.17 PBM z-score against 500 random probes | -0.77 PBM z-score against 500 random probes | -0.8 PBM z-score against 500 random probes |  |  |  |  |  |  |  |  |
| NRC3_wobSeed34_DR1_G14A_o1 (dsDNA) DNA 1: GCATCGAAAGGTCAAAGGTGAGTATACCCACCCGAAGCGATTGACAGCGTAGAATGAAGG DNA 2: CCTTCATTCTACGCTGTCAATCGCTTCGGGTGGGTATACTCACCTTTGACCTTTCGATGC | 10 PBM z-score against 500 random probes | 8.66 PBM z-score against 500 random probes | 6.85 PBM z-score against 500 random probes | 7.53 PBM z-score against 500 random probes |  | 6.57 PBM z-score against 500 random probes | 10.1 PBM z-score against 500 random probes | 8.43 PBM z-score against 500 random probes | 6.19 PBM z-score against 500 random probes | 8.87 PBM z-score against 500 random probes | 7.65 PBM z-score against 500 random probes |
| NRC3_random_hg19_59_o1 (dsDNA) DNA 1: GCCAGTTCAAGACCAGCCTGGCCAACATGGTGAAACGCGATTGACAGCGTAGAATGAAGG DNA 2: CCTTCATTCTACGCTGTCAATCGCGTTTCACCATGTTGGCCAGGCTGGTCTTGAACTGGC | 0.03 PBM z-score against 500 random probes | -0 PBM z-score against 500 random probes |  |  |  |  |  |  |  |  | 0.49 PBM z-score against 500 random probes |
| NRC3_wobSeed38_DR1_T16A_o1 (dsDNA) DNA 1: GCCCTGCTAGGTCAAAGGTCAGCTAAAGCAGCTCGCGCGATTGACAGCGTAGAATGAAGG DNA 2: CCTTCATTCTACGCTGTCAATCGCGCGAGCTGCTTTAGCTGACCTTTGACCTAGCAGGGC | 12.7 PBM z-score against 500 random probes | 8.86 PBM z-score against 500 random probes | 5.81 PBM z-score against 500 random probes | 6.82 PBM z-score against 500 random probes |  | 6.86 PBM z-score against 500 random probes | 10 PBM z-score against 500 random probes | 8.54 PBM z-score against 500 random probes | 5.62 PBM z-score against 500 random probes |  |  |
